Data from doi:10.1101/2023.05.30.542861 (bioRxiv, 2023).

Target: the molecule itself
Assay: cross-linking

B1: L-Glutamate dehydrogenase from bovine liver (enzyme)
chain: not shown
stoichiometry N: 6
